Results reported in publication doi:10.64898/2025.12.30.697126 (bioRxiv, 2025).

Biological target: single-chain H2B-H2A.Z (human)
Assay: crystal structure

SEDAQSQSQADEEEEDDDFGVEYLLARDEE [Peptide SRCAP_(531-560)]: binds.
